Broadly, the Kd is the equilibrium constant for the complex coming apart.

The assay has as its target growth factor receptor-bound protein 2 (Grb2), recombinant (human, UniProt P62993 1-217). Nature of the assay: SPR. On the technique in general: In SPR one partner is held on a chip, and binding of the other changes the refractive index at the surface.

growth factor receptor-bound protein 2 (Grb2), recombinant, sequence (P62993 whole entry): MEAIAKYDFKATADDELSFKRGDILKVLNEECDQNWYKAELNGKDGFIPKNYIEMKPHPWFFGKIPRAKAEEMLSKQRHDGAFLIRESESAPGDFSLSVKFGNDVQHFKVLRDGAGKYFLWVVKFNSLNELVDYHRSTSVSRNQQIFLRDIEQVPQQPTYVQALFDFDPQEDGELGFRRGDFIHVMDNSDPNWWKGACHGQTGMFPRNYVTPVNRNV

Take YEVPPPVPPRRRGSC [SH3-binding peptide (YEVPPPVPPRRR)]: the Kd worked out at 7.5 ± 5.7 mM.

The values above are taken from article PMC3390916 (Chembiochem, 2011).
